Measurements from patent publication US6423503.

Target: α1antichymotrypsin (ACT) (UniProt P01011)
Sequence (P01011 24-423): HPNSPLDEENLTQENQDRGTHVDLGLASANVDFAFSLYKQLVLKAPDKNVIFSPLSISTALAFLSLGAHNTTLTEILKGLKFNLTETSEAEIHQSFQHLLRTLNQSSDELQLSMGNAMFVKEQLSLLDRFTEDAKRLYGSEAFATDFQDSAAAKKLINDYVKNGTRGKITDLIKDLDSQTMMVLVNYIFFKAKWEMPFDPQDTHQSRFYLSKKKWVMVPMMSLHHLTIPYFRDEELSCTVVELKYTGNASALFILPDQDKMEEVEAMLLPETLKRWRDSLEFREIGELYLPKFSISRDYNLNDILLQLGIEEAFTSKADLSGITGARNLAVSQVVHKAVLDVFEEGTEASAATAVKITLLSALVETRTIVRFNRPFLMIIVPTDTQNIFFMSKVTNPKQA

## prostate-specific antigen (PSA), mature form
  cleavage of ACT (HIC-HPLC peak 1): Peak 1 is inactive ACT which has been cleaved by PSA
